{
  "source": "paper PMC6946549",
  "about": "(Biochemistry, 2019)",
  "binders": {"B1": {"name": "Ltp2 (17-hydroxy-3-oxo-4-pregnene-20-carboxyl-CoA retro-aldolase; chain gamma of the ChsH1-ChsH2-Ltp2 complex) (enzyme)", "chain": "MLSGQAAIVGIGATDFSKNSGRSELRLAAEAVLDALADAGLSPTDVDGLTTFTMDTNTEIAVARAAGIGELTFFSKIHYGGGAACATVQHAAMAVATGVADVVVAYRAFNERSGMRFGQVQTRLTENADSTGVDNSFSYPHGLSTPAAQVAMIARRYMHLSGATSRDFGAVSVADRKHAANNPKAYFYGKPITIEDHQNSRWIAEPLRLLDCCQETDGAVAIVVTSAARARDLKQRPVVIEAAAQGCSPDQYTMVSYYRPELDGLPEMGLVGRQLWAQSGLTPADVQTAVLYDHFTPFTLIQLEELGFCGKGEAKDFIADGAIEVGGRLPINTHGGQLGEAYIHGMNGIAEGVRQLRGTSVNPVAGVEHVLVTAGTGVPTSGLILG"}, "B2": {"name": "ChsH2 (chain beta of the ChsH1-ChsH2-Ltp2 complex) (enzyme)", "chain": "MTGVSDIQEAVAQIKAAGPSKPRLARDPVNQPMINNWVEAIGDRNPIYVDDAAARAAGHPGIVAPPAMIQVWTMMGLGGVRPKDDPLGPIIKLFDDAGYIGVVATNCEQTYHRYLLPGEQVSISAELGDVVGPKQTALGEGWFINQHIVWQVGDEDVAEMNWRILKFKPAGSPSSVPDDLDPDAMMRPSSSRDTAFFWDGVKAHELRIQRLADGSLRHPPVPAVWQDKSVPINYVVSSGRGTVFSFVVHHAPKVPGRTVPFVIALVELEEGVRMLGELRGADPARVAIGMPVRATYIDFPDWSLYAWEPDE"}},
  "key": {"negative-stain EM": {"molecular_target": "the molecule itself", "assay": "negative-stain EM"}, "[1]": {"molecular_target": "B1", "assay": "SAXS"}},
  "data": [
    {"binder": "B1", "values": [
      {"measurement": "binding result", "setting": "negative-stain EM", "result": "binds"}
    ]},
    {"binder": "B2", "values": [
      {"measurement": "binding result", "setting": "[1]", "result": "binds"}
    ]}
  ]
}
